Test results from paper PMC4755738, “Actin filaments target the oligomeric maturation of the dynamin GTPase Drp1 to mitochondrial fission sites” (eLife, 2015).

Experiments:
[1] = molecular target: T1, Rabbit skeletal muscle actin (filaments) (rabbit, UniProt P68135 1-377); experiment: cell-based or functional assay
[2] = molecular target: T1, Rabbit skeletal muscle actin (filaments); experiment: co-sedimentation; high-speed co-sedimentation; Drp1 1.3 uM with pre-polymerized actin filaments 0.25-10 uM, 1 hr at 23 C, 200 ul, ionic strength 75 mM (NaCl); 80,000 rpm 20 min 4 C (TLA-100.1); pellets on SDS-PAGE, Colloidal blue, ImageJ; apparent Kd; settings: both partners purified

B1: Human Drp1 isoform 000 (E. coli-purified) (enzyme)
chain: MEALIPVINKLQDVFNTVGADIIQLPQIVVVGTQSSGKSSVLESLVGRDLLPRGTGIVTRRPLILQLVHVSQEDKRKTTGEENGVEAEEWGKFLHTKNKLYTDFDEIRQEIENETERISGNNKGVSPEPIHLKIFSPNVVNLTLVDLPGMTKVPVGDQPKDIELQIRELILRFISNPNSIILAVTAANTDMATSEALKISREVDPDGRRTLAVITKLDLMDAGTDAMDVLMGRVIPVKLGIIGVVNRSQLDINNKKSVTDSIRDEYAFLQKKYPSLANRNGTKYLARTLNRLLMHHIRDCLPELKTRINVLAAQYQSLLNSYGEPVDDKSATLLQLITKFATEYCNTIEGTAKYIETSELCGGARICYIFHETFGRTLESVDPLGGLNTIDILTAIRNATGPRPALFVPEVSFELLVKRQIKRLEEPSLRCVELVHEEMQRIIQHCSNYSTQELLRFPKLHDAIVEVVTCLLRKRLPVTNEMVHNLVAIELAYINTKHPDFADACGLMNNNIEEQRRNRLARELPSAVSRDKVASGGGGVGDGVQEPTTGNWRGMLKTSKAEELLAEEKSKPIPIMPASPQKGHAVNLLDVPVPVARKLSAREQRDCEVIERLIKSYFLIVRKNIQDSVPKAVMHFLVNHVKDTLQSELVGQLYKSSLLDDLLTESEDMAQRRKEAADMLKALQGASQIIAEIRETHLW
notes: Drp1 (dynamin-related protein 1), human, isoform 000 of Strack et al. 2013; Cloned in pET16b with an N-terminal Strep-tag followed by an HRV3C protease site; eluted from the resin by HRV3C cleavage; Used in high-speed co-sedimentation and GTPase assays; also called dynamin GTPase Drp1; not shown: Strep-tag, N-terminal, cleaved
Question: Which results are given for B1?
Answer: Drp1 GTPase activity (malachite green phosphate release) with 0.5 or 1 uM pre-polymerized actin filaments, against Drp1 alone [1]: ~3.5 fold; Kd [2]: 800 ± 400 nM
